# Test results reported in IntAct's records for PubMed 22705394.
# B1: Ras-related protein Rab-21 (Homo sapiens), Q9UL25 (parent)
# chain: MAAAGGGGGGAAAAGRAYSFKVVLLGEGCVGKTSLVLRYCENKFNDKHITTLQASFLTKKLNIGGKRVNLAIWDTAGQERFHALGPIYYRDSNGAILVYDITDEDSFQKVKNWVKELRKMLGNEICLCIVGNKIDLEKERHVSIQEAESYAESVGAKHYHTSAKQNKGIEELFLDLCKRMIETAQVDERAKGNGSSQPGTARRGVQIIDDEPQAQTSGGGCCSSG
# Variants of: B1
# Conditions: with macf1_human MACF1, Q9UPN3
row,Variant,effect of a mutation on the interaction
1,MAAAGGGGGGAAAAGRAYSFKVVLLGEGCVGKNSLVLRYCENKFNDKHITTLQASFLTKKLNIGGKRVNLAIWDTAGQERFHALGPIYYRDSNGAILVYDITDEDSFQKVKNWVKELRKMLGNEICLCIVGNKIDLEKERHVSIQEAESYAESVGAKHYHTSAKQNKGIEELFLDLCKRMIETAQVDERAKGNGSSQPGTARRGVQIIDDEPQAQTSGGGCCSSG [T33N],decreasing interaction

# Variants of: B1
# Conditions: with MACF1, Q9UPN3-1
row,Variant,effect of a mutation on the interaction
1,MAAAGGGGGGAAAAGRAYSFKVVLLGEGCVGKNSLVLRYCENKFNDKHITTLQASFLTKKLNIGGKRVNLAIWDTAGQERFHALGPIYYRDSNGAILVYDITDEDSFQKVKNWVKELRKMLGNEICLCIVGNKIDLEKERHVSIQEAESYAESVGAKHYHTSAKQNKGIEELFLDLCKRMIETAQVDERAKGNGSSQPGTARRGVQIIDDEPQAQTSGGGCCSSG [T33N],decreasing interaction
